Results: US20250327097A1, “ORGANISMS PRODUCING LESS CROTONIC ACID” (Global Bioenergies, priority 2021, published 2025)

system: 3-methylcrotonic acid; assay type: biochemical, Yersinia frederiksenii; parameters: key: “+” representing a low increase in activity; “++++” representing a high increase in activity

Molecule | Activity relative to WT
P284E-N287Q-S322T-N388M-K394R-C430N-L432F-L434W-S436N-G462R-dA463 (protein) MFLKSLREQINLLKRQGDLRIINRPVDSYLEAAAIIRRSTETKAPVPLMTNIKGYPGCSIVGGLAALSSNPEYPLSRVAMSLGLSTTASAQSIVQYLIDGLKKTPYLPVEIDSNSAPCKQNILRGEDASLAHFPIPQVHQHDGNRYVNTWGVFIVESPDGQWCNWSIQRVQYLNDRQMIALVFPSQHISDIWEEWVKIGKPMPYALVQGCEPIVPYIAGLPLLERNVNEAEYIGALYGKGIEVVKCETHDLRVPASSEVVIEGYFAITREGVEGPFGEFAGYIENEQSLQPILSITAISWQDDPIWPVVAEGKPVDEYHTCTGIGDAAAIQNVLLTANLPVSFVWVPLYSACHLMIVSINRHWRQTHPDLTSEQLTKKVGDVIHQTRMSIKLPRIVVLDDDVDPADTESLLWALATRIHPERKRYFYESNIFPWLNCYSEEERHNRKGKRVIIDALLPENHRAISSFDYAYPDDIKQRVLMHWETDFSHD | ++++
P284E-N287Q-S322T-N388M-K394R-C430N-L432F-L434W-S436N-dA463-Y469T (protein) MFLKSLREQINLLKRQGDLRIINRPVDSYLEAAAIIRRSTETKAPVPLMTNIKGYPGCSIVGGLAALSSNPEYPLSRVAMSLGLSTTASAQSIVQYLIDGLKKTPYLPVEIDSNSAPCKQNILRGEDASLAHFPIPQVHQHDGNRYVNTWGVFIVESPDGQWCNWSIQRVQYLNDRQMIALVFPSQHISDIWEEWVKIGKPMPYALVQGCEPIVPYIAGLPLLERNVNEAEYIGALYGKGIEVVKCETHDLRVPASSEVVIEGYFAITREGVEGPFGEFAGYIENEQSLQPILSITAISWQDDPIWPVVAEGKPVDEYHTCTGIGDAAAIQNVLLTANLPVSFVWVPLYSACHLMIVSINRHWRQTHPDLTSEQLTKKVGDVIHQTRMSIKLPRIVVLDDDVDPADTESLLWALATRIHPERKRYFYESNIFPWLNCYSEEERHNRKGKRVIIDALLPENHGAISSFDTAYPDDIKQRVLMHWETDFSHD | ++++
P284E-N287Q-S322T-N388M-K394R-C430N-L432F-L434W-S436N-dA463-A470S (protein) MFLKSLREQINLLKRQGDLRIINRPVDSYLEAAAIIRRSTETKAPVPLMTNIKGYPGCSIVGGLAALSSNPEYPLSRVAMSLGLSTTASAQSIVQYLIDGLKKTPYLPVEIDSNSAPCKQNILRGEDASLAHFPIPQVHQHDGNRYVNTWGVFIVESPDGQWCNWSIQRVQYLNDRQMIALVFPSQHISDIWEEWVKIGKPMPYALVQGCEPIVPYIAGLPLLERNVNEAEYIGALYGKGIEVVKCETHDLRVPASSEVVIEGYFAITREGVEGPFGEFAGYIENEQSLQPILSITAISWQDDPIWPVVAEGKPVDEYHTCTGIGDAAAIQNVLLTANLPVSFVWVPLYSACHLMIVSINRHWRQTHPDLTSEQLTKKVGDVIHQTRMSIKLPRIVVLDDDVDPADTESLLWALATRIHPERKRYFYESNIFPWLNCYSEEERHNRKGKRVIIDALLPENHGAISSFDYSYPDDIKQRVLMHWETDFSHD | ++++
I283T-N285P-N287T-L289Y-Q290E-S322T-N388M-K394R-C430A-L432F-L434W-S436N-G462P-A463P (protein) MFLKSLREQINLLKRQGDLRIINRPVDSYLEAAAIIRRSTETKAPVPLMTNIKGYPGCSIVGGLAALSSNPEYPLSRVAMSLGLSTTASAQSIVQYLIDGLKKTPYLPVEIDSNSAPCKQNILRGEDASLAHFPIPQVHQHDGNRYVNTWGVFIVESPDGQWCNWSIQRVQYLNDRQMIALVFPSQHISDIWEEWVKIGKPMPYALVQGCEPIVPYIAGLPLLERNVNEAEYIGALYGKGIEVVKCETHDLRVPASSEVVIEGYFAITREGVEGPFGEFAGYTPPETSYEPILSITAISWQDDPIWPVVAEGKPVDEYHTCTGIGDAAAIQNVLLTANLPVSFVWVPLYSACHLMIVSINRHWRQTHPDLTSEQLTKKVGDVIHQTRMSIKLPRIVVLDDDVDPADTESLLWALATRIHPERKRYFYESAIFPWLNCYSEEERHNRKGKRVIIDALLPENHPPISSFDYAYPDDIKQRVLMHWETDFSHD | ++++
I283T-N285P-N287T-Q290E-S322T-Q365M-N388M-K394R-C430A-L432F-L434W-S436N-G462P-A463P (protein) MFLKSLREQINLLKRQGDLRIINRPVDSYLEAAAIIRRSTETKAPVPLMTNIKGYPGCSIVGGLAALSSNPEYPLSRVAMSLGLSTTASAQSIVQYLIDGLKKTPYLPVEIDSNSAPCKQNILRGEDASLAHFPIPQVHQHDGNRYVNTWGVFIVESPDGQWCNWSIQRVQYLNDRQMIALVFPSQHISDIWEEWVKIGKPMPYALVQGCEPIVPYIAGLPLLERNVNEAEYIGALYGKGIEVVKCETHDLRVPASSEVVIEGYFAITREGVEGPFGEFAGYTPPETSLEPILSITAISWQDDPIWPVVAEGKPVDEYHTCTGIGDAAAIQNVLLTANLPVSFVWVPLYSACHLMIVSINRHWRMTHPDLTSEQLTKKVGDVIHQTRMSIKLPRIVVLDDDVDPADTESLLWALATRIHPERKRYFYESAIFPWLNCYSEEERHNRKGKRVIIDALLPENHPPISSFDYAYPDDIKQRVLMHWETDFSHD | ++++
P284E-N287Q-S322T-N388M-K394R-C430N-L432F-L434W-S436N-dA463-Y469E (protein) MFLKSLREQINLLKRQGDLRIINRPVDSYLEAAAIIRRSTETKAPVPLMTNIKGYPGCSIVGGLAALSSNPEYPLSRVAMSLGLSTTASAQSIVQYLIDGLKKTPYLPVEIDSNSAPCKQNILRGEDASLAHFPIPQVHQHDGNRYVNTWGVFIVESPDGQWCNWSIQRVQYLNDRQMIALVFPSQHISDIWEEWVKIGKPMPYALVQGCEPIVPYIAGLPLLERNVNEAEYIGALYGKGIEVVKCETHDLRVPASSEVVIEGYFAITREGVEGPFGEFAGYIENEQSLQPILSITAISWQDDPIWPVVAEGKPVDEYHTCTGIGDAAAIQNVLLTANLPVSFVWVPLYSACHLMIVSINRHWRQTHPDLTSEQLTKKVGDVIHQTRMSIKLPRIVVLDDDVDPADTESLLWALATRIHPERKRYFYESNIFPWLNCYSEEERHNRKGKRVIIDALLPENHGAISSFDEAYPDDIKQRVLMHWETDFSHD | ++++
N388M-K394R-C430A-L432F-L434W-S436N (protein) MFLKSLREQINLLKRQGDLRIINRPVDSYLEAAAIIRRSTETKAPVPLMTNIKGYPGCSIVGGLAALSSNPEYPLSRVAMSLGLSTTASAQSIVQYLIDGLKKTPYLPVEIDSNSAPCKQNILRGEDASLAHFPIPQVHQHDGNRYVNTWGVFIVESPDGQWCNWSIQRVQYLNDRQMIALVFPSQHISDIWEEWVKIGKPMPYALVQGCEPIVPYIAGLPLLERNVNEAEYIGALYGKGIEVVKCETHDLRVPASSEVVIEGYFAITREGVEGPFGEFAGYIPNENSLQPILSITAISWQDDPIWPVVAEGKPVDEYHTCSGIGDAAAIQNVLLTANLPVSFVWVPLYSACHLMIVSINRHWRQTHPDLTSEQLTKKVGDVIHQTRMSIKLPRIVVLDDDVDPADTESLLWALATRIHPERKRYFYESAIFPWLNCYSEEERHNRKGKRVIIDALLPENHGAISSFDYAYPDDIKQRVLMHWETDFSHD | +
P284E-N287Q-S322T-N388M-K394R-C430N-L432F-L434W-S436N-dA463-S465A (protein) MFLKSLREQINLLKRQGDLRIINRPVDSYLEAAAIIRRSTETKAPVPLMTNIKGYPGCSIVGGLAALSSNPEYPLSRVAMSLGLSTTASAQSIVQYLIDGLKKTPYLPVEIDSNSAPCKQNILRGEDASLAHFPIPQVHQHDGNRYVNTWGVFIVESPDGQWCNWSIQRVQYLNDRQMIALVFPSQHISDIWEEWVKIGKPMPYALVQGCEPIVPYIAGLPLLERNVNEAEYIGALYGKGIEVVKCETHDLRVPASSEVVIEGYFAITREGVEGPFGEFAGYIENEQSLQPILSITAISWQDDPIWPVVAEGKPVDEYHTCTGIGDAAAIQNVLLTANLPVSFVWVPLYSACHLMIVSINRHWRQTHPDLTSEQLTKKVGDVIHQTRMSIKLPRIVVLDDDVDPADTESLLWALATRIHPERKRYFYESNIFPWLNCYSEEERHNRKGKRVIIDALLPENHGAIASFDYAYPDDIKQRVLMHWETDFSHD | ++++
I283T-N285P-N287T-L289A-Q290E-S322T-N388M-K394R-C430A-L432F-L434W-S436N-G462P-A463P (protein) MFLKSLREQINLLKRQGDLRIINRPVDSYLEAAAIIRRSTETKAPVPLMTNIKGYPGCSIVGGLAALSSNPEYPLSRVAMSLGLSTTASAQSIVQYLIDGLKKTPYLPVEIDSNSAPCKQNILRGEDASLAHFPIPQVHQHDGNRYVNTWGVFIVESPDGQWCNWSIQRVQYLNDRQMIALVFPSQHISDIWEEWVKIGKPMPYALVQGCEPIVPYIAGLPLLERNVNEAEYIGALYGKGIEVVKCETHDLRVPASSEVVIEGYFAITREGVEGPFGEFAGYTPPETSAEPILSITAISWQDDPIWPVVAEGKPVDEYHTCTGIGDAAAIQNVLLTANLPVSFVWVPLYSACHLMIVSINRHWRQTHPDLTSEQLTKKVGDVIHQTRMSIKLPRIVVLDDDVDPADTESLLWALATRIHPERKRYFYESAIFPWLNCYSEEERHNRKGKRVIIDALLPENHPPISSFDYAYPDDIKQRVLMHWETDFSHD | ++++
I283T-N285P-E286D-N287T-Q290E-S322T-N388M-K394R-C430A-L432F-L434W-S436N-G462P-A463P (protein) MFLKSLREQINLLKRQGDLRIINRPVDSYLEAAAIIRRSTETKAPVPLMTNIKGYPGCSIVGGLAALSSNPEYPLSRVAMSLGLSTTASAQSIVQYLIDGLKKTPYLPVEIDSNSAPCKQNILRGEDASLAHFPIPQVHQHDGNRYVNTWGVFIVESPDGQWCNWSIQRVQYLNDRQMIALVFPSQHISDIWEEWVKIGKPMPYALVQGCEPIVPYIAGLPLLERNVNEAEYIGALYGKGIEVVKCETHDLRVPASSEVVIEGYFAITREGVEGPFGEFAGYTPPDTSLEPILSITAISWQDDPIWPVVAEGKPVDEYHTCTGIGDAAAIQNVLLTANLPVSFVWVPLYSACHLMIVSINRHWRQTHPDLTSEQLTKKVGDVIHQTRMSIKLPRIVVLDDDVDPADTESLLWALATRIHPERKRYFYESAIFPWLNCYSEEERHNRKGKRVIIDALLPENHPPISSFDYAYPDDIKQRVLMHWETDFSHD | ++++
